From patent publication US20250320281A1

Legend:
Assay in all cases: cell-based or functional assay
[1] = biological target: HIV-1 92BR020 envelope glycoprotein (Env) on pseudovirus (HIV-1)
[2] = biological target: HIV-1 Env of isolate MGRM-C-026 (pseudovirus) (HIV-1)
[3] = biological target: HIV-1 Env of isolate TRO.11 (subtype B pseudovirus) (HIV-1)
[4] = biological target: HIV-1 APV13 Env (pseudovirus, clade B) (HIV-1)
[5] = biological target: HIV-1 Env of isolate MGRM-AG-002 (HIV-1)
[6] = biological target: HIV-1 Env of isolate 98CN006 (pseudovirus) (HIV-1)
[7] = biological target: HIV-1 Env of isolate MGRM-F1-010 (pseudovirus) (HIV-1)
[8] = biological target: HIV-1 Env of pseudovirus isolate MGRM-G-024 (HIV-1)
[9] = biological target: HIV-1 Env of isolate MGRM-Chronic-B-011 (subtype B pseudovirus) (HIV-1)
[10] = biological target: HIV-1 Env of isolate MGRM-D-018 (pseudovirus) (HIV-1)
[11] = biological target: HIV-1 Env of isolate MGRM-D-005 (pseudovirus) (HIV-1)
[12] = biological target: HIV-1 MGRM-AG-005 Env (pseudovirus) (HIV-1)
[13] = biological target: HIV-1 Env of isolate MGRM-Chronic-B-024 (subtype B pseudovirus) (HIV-1)
[14] = biological target: HIV-1 93UG077 Env (pseudovirus, clade A) (HIV-1)
[15] = biological target: HIV-1 Env of isolate MGRM-Chronic-B-004 (subtype B pseudovirus) (HIV-1)
[16] = biological target: HIV-1 JRCSF envelope glycoprotein (Env) on pseudovirus (HIV-1) (UniProt P20871)
[17] = biological target: HIV-1 Env of pseudovirus MGRM-AE-004 (clade CRF01_AE) (HIV-1)
[18] = biological target: HIV-1 APV-6 envelope glycoprotein (Env) on pseudovirus (HIV-1)
[19] = biological target: HIV-1 Env of isolate MGRM-Chronic-B-008, clade B, on pseudovirus (HIV-1)
[20] = biological target: HIV-1 Env of pseudovirus MGRM-AG-012 (clade CRF_AG) (HIV-1)
[21] = biological target: HIV-1 Env of isolate MGRM-D-022 (clade D pseudovirus) (HIV-1)
[22] = biological target: HIV-1 Env of isolate 92RW021 (clade A pseudovirus) (HIV-1)
[23] = biological target: HIV-1 Env of pseudovirus MGRM-Chronic-B-023 (HIV-1)
[24] = biological target: HIV-1 Env of isolate 98IN022 (clade C) (HIV-1 isolate 98IN022)
[25] = biological target: HIV-1 Env of pseudovirus MGRM-Chronic-B-018 (HIV-1)
[26] = biological target: HIV-1 Env of pseudovirus MGRM-Chronic-B-024 (HIV-1)
[27] = biological target: HIV-1 envelope glycoprotein (Env) of isolate 93UG077, clade A (HIV-1)
[28] = biological target: HIV-1 envelope glycoprotein (Env) of isolate MGRM-A-008, clade A (HIV-1)
[29] = biological target: HIV-1 envelope glycoprotein (Env) of isolate MGRM-A-011, clade A (HIV-1)
[30] = biological target: HIV-1 Env of isolate MGRM-D-014 (clade D pseudovirus) (HIV-1)
[31] = biological target: HIV-1 Env of pseudovirus MGRM-G-014 (HIV-1, clade G isolate MGRM-G-014)
[32] = biological target: HIV-1 Env of pseudovirus MGRM-AG-011 (clade CRF_AG) (HIV-1)

Substance | Primary Neutralization Index (B cell culture supernatant) [2] | IC50 (µg/mL), pseudovirus neutralization [3] | IC50 neutralization [4] | IC50 [5] | IC50, pseudovirus neutralization [6] | IC50, pseudovirus neutralization [7] | IC50 (µg/mL), pseudovirus neutralization [8] | IC50 (µg/mL), pseudovirus neutralization [9] | IC50, pseudovirus neutralization [10] | IC50, pseudovirus neutralization [11] | neutralization IC50 (pseudovirus) [12] | IC50 (µg/mL), pseudovirus neutralization [13] | IC50 neutralization [14] | IC50 (µg/mL), pseudovirus neutralization [15] | IC50, pseudovirus neutralization [1] | IC90 (pseudovirus neutralization) [16] | Polyclonal Transfectant Neutralization Index [2] | other results
4858_P08 (PGT-123) (antibody) | 33.8 | 0.008 µg/mL | 0.222 µg/mL | > 50 µg/mL | 0.008 µg/mL | 0.016 µg/mL | 0.032 µg/mL | > 50 µg/mL | 0.007 µg/mL | > 50 µg/mL | 0.104 µg/mL | > 50 µg/mL | 0.0303 µg/mL | 0.008 µg/mL | – | – | – | neutralization IC50 [1]: 0.013 µg/mL; neutralization IC80 [1]: 0.039 µg/mL; neutralization IC90 [1]: 0.0741 µg/mL; neutralization IC95 [1]: 0.134 µg/mL; neutralization IC50 [16]: 0.0423 µg/mL; neutralization IC80 [16]: 0.143 µg/mL; neutralization IC90 [16]: 0.289 µg/mL; neutralization IC95 [16]: 0.547 µg/mL
2G12 (antibody) | – | – | – | – | – | – | – | – | – | – | – | – | – | – | 2.26 µg/mL | 5.38 µg/mL | – | IC50 [17]: > 50 µg/mL; IC50, pseudovirus neutralization [18]: 5.3 µg/mL; IC50 (µg/ml), pseudovirus neutralization [19]: 0.55 µg/mL; IC50 [20]: 1.94 µg/mL; IC50 (µg/ml), pseudovirus neutralization [21]: > 50 µg/mL; IC50 (µg/ml), pseudovirus neutralization [22]: > 50 µg/mL; IC50 (µg/ml), pseudovirus neutralization [23]: 0.16 µg/mL; IC50 (µg/ml), pseudovirus neutralization [24]: > 50 µg/mL; IC50 (µg/ml), pseudovirus neutralization [25]: > 50 µg/mL; IC50 (µg/ml), pseudovirus neutralization [26]: > 50 µg/mL; IC50 (µg/ml), pseudovirus neutralization [27]: > 50 µg/mL; IC50 (µg/ml), pseudovirus neutralization [28]: > 50 µg/mL; IC50 (µg/ml), pseudovirus neutralization [29]: > 50 µg/mL; IC50 (µg/ml), pseudovirus neutralization [30]: > 50 µg/mL; IC50, pseudovirus neutralization [16]: 0.66 µg/mL; IC50 (µg/ml), pseudovirus neutralization [31]: > 50 µg/mL; IC50 [32]: > 50 µg/mL
5123_A06 (PGT-125) (antibody) | 512 | 0.111 µg/mL | 0.0128 µg/mL | > 50 µg/mL | 0.201 µg/mL | > 50 µg/mL | > 50 µg/mL | 3.23 µg/mL | > 50 µg/mL | > 50 µg/mL | > 10 µg/mL | > 50 µg/mL | 0.0262 µg/mL | 0.007 µg/mL | – | – | 88.3 | –
5141_B17 (PGT-126) (antibody) | 654 | 0.041 µg/mL | 0.012 µg/mL | > 50 µg/mL | 0.046 µg/mL | > 50 µg/mL | > 50 µg/mL | 0.108 µg/mL | 0.009 µg/mL | 0.792 µg/mL | 1.35 µg/mL | > 50 µg/mL | 0.0256 µg/mL | 0.01 µg/mL | 0.0163 µg/mL | 0.0339 µg/mL | 102 | IC80 (pseudovirus neutralization) [1]: 0.0457 µg/mL; IC90 (pseudovirus neutralization) [1]: 0.0846 µg/mL; IC95 (pseudovirus neutralization) [1]: 0.152 µg/mL; IC80 (pseudovirus neutralization) [16]: 0.018 µg/mL; IC95 (pseudovirus neutralization) [16]: 0.0608 µg/mL
